The data set concerns the molecule itself. Briefly: SEC.

The record followed here is article PMC2914609 (Nanomedicine (London, England), 2010).

B1: Phage fusion 55-mer coat protein (pVIII coat fusion protein bearing the MCF-7-specific peptide DMPGTVLP) (designed binder)
chain: ADMPGTVLPDPAKAAFDSLQASATEYIGYAWAMVVVIVGATIGIKLFKKFTSKAS
For orientation: stoichiometry N means the number of molecules, sites or subunits per partner or assembly. Take B1: the “stoichiometry N” value came to 8.
